These results are taken from WO2019173771A1.

This experiment concerns the target human CD147 on human cell lines (KYSE-70, H292, LS174T and other human-derived cell lines) (human) (UniProt P35613). Briefly: FACS on the human KYSE-70 esophageal epithelial cell line, Alexa Fluor 647 anti-human IgG.

B1: humanized anti-human CD147 hu3A11 antibody (3A11 Lc1 / Hc1) (antibody, V domains shown)
VH: EVQLVESGGGLVQPGGSLRLSCAASGFTFSNYWMDWVRQAPGKGLEWVGEIRLKSYNYATHYAASVKGRFTISRDDSKNSVYLQMNSLKTEDTAVYYCTAAGTDYWGQGTLVTVSS
VL: DIQMTQSPSSLSASVGDRVTITCRASQSVRTDVGWYQQKPGKAPKLLIYYSSNRYTGVPSRFSGSGSGTDFTLTISSLQPEDFATYYCQQDYSSPYTFGQGTKLEIK
On to B1, for which the dissociation constant (Kd) was 1.65 nM.
